Reference: patent US8221773B2, “Hydrogels and uses thereof” (University of Delaware, priority 2004, dated 2012)
Where no end group is shown, it is not given here. [ ]: non-standard residue; d: D form.

Columns and labels:
[1] = Temperature dependent CD: temperature at which folding and self-assembly is triggered (Tgel); type: physicochemical; conditions: for temperature at which folding and consequent self-assembly is triggered (Tgel): 150 μM peptide, 125 mM Borate, 10 mM NaCl, pH 9, CD ellipticity at 218 nm
From the text: At low temperature MAX1 is unfolded (and unassembled). At high temperature MAX1 folds into beta-sheet (and consequently self-assembles into a hydrogel). […] The relative hydrophobicity is MAX1>MAX2>MAX3 due to the isostructural but less hydrophobic substitutions of threonine for valine at the underlined positions. The most hydrophobic folds at the lowest temperature while the least hydrophobic folds at the highest temperature. This is a direct manifestations of the molecular parameter manipulations described in FIG. 2. Also shown are the calculated free energy of transfer of each corresponding unfolded peptide having an overall +8 charge state from octanol into water at 25° C. MAX1, the most hydrophobic has the highest free energy of transfer equal to 7.60 kcal/mol. MAX2 has a calculated transfer free energy of 6.88 kcal/mol, while the least hydrophobic MAX3 has the lowest energy of transfer of 6.45 kcal/mol.
This allows the characteristics of the hydrogels of the invention to be varied by adjusting these parameters. […] It is well known that water is better able to solvate hydrophobic groups at low temperatures. This phenomenon has been used to describe the cold denaturation of proteins where some proteins unfold at low temperatures, exposing their hydrophobic interiors to aqueous solvent. A 150 μM aqueous solution of MAX1 unfolds when cooled below room temperature. The CD spectrum at 5° C. is consistent with random coil conformation, FIG. 9A. However, warming the solution to 40° C. results in a spectra consistent with β-sheet structure. […] In fact, previous studies involving the pH induced folding and self-assembly of MAX1 were performed at 20° C. At this temperature, folding and self-assembly are slow enough to be conveniently monitored. At higher temperatures, folding and self: assembly leading to hydrogelation is fast (instantaneous to seconds depending on concentration). If the formation of hydrophobic interactions affects the folding and self-assembly process, then altering the hydrophobic content of MAX1 should affect the temperature at which folding is triggered. […] MAX2 is identical to MAX1 except that one valine residue has been replaced with the isostructural, but less hydrophobic residue, threonine. In MAX3, two valines are replaced with threonine residues. The resulting peptides vary in their hydrophobicity as evident by comparing calculated free energies of transfer from octanol into water, FIG. 9. […] Thus, the formation of hydrophobic contacts influences folding and self-assembly. […] Thus, the characteristics of the hydrogels of the invention can be varied by adjusting the amino acid residues of the peptides used to form the hydrogels to increase or decrease the hydrophobicity of the amino acid residues used.
There are reports of large polymers that are thermally responsive. The present invention provides the first system that employs temperature triggered folding to induce self-assembly. […] Heating the solution to 80° C. results in a spectra consistent with β-sheet structure. […] The temperatures used in both CD and rheology bracket the temperature (Tgel=60° C., FIG. 9) at which folding and consequent self-assembly is triggered. […] For example, free flowing peptide solutions could be prepared at room temperature and administered in vivo where the temperature of the body could induce gelation. […]

[2] = Hydrogelation by folding and self-assembly; type: physicochemical; conditions: for reversibility of thermally induced hydrogelation: pH 9, heating/cooling cycles
Method: The ability of MAX1 to undergo hydrogelation is dependent upon its unimolecular folded state. Under basic aqueous solution conditions (pH 9.0, 125 mM Borate, 10 mM NaCl), where some of the lysine side chains of MAX1 are neutral, this peptide intramolecularly folds into an amphiphilic β-hairpin (folding can also be triggered at pH 7 under physiological conditions). One face of the hairpin is lined with hydrophobic valine residues while the other face is lined with hydrophilic lysine residues, FIGS. 2 and 3A. After intramolecular folding, subsequent self-assembly of hairpins is facilitated (a) laterally via H-bond formation and attractive hydrophobic interactions between distinct hairpins as well as (b) facially by hydrophobic association of the valine-rich faces of the folded peptide resulting in hydrogelation, FIG. 3B. Since the charged state of the lysine residues are controlled by pH, the unimolecular folding is reversible. Lowering the pH below the intrinsic pKa of the lysine side chains results in intra-strand charge repulsion from neighboring lysines and subsequent unfolding of individual hairpins, ultimately dissolving the self-assembled hydrogel structure. This reversible behavior is unique when compared to β-sheet-rich hydrogels prepared from classical fibril-based designs. In these systems, the self-assembly process is irreversible.
There are reports of large polymers that are thermally responsive. The present invention provides the first system that employs temperature triggered folding to induce self-assembly. […] Heating the solution to 80° C. results in a spectra consistent with β-sheet structure. […] The temperatures used in both CD and rheology bracket the temperature (Tgel=60° C., FIG. 9) at which folding and consequent self-assembly is triggered. […] For example, free flowing peptide solutions could be prepared at room temperature and administered in vivo where the temperature of the body could induce gelation. Some Poly-N-isopropylacrylamide polymers have been engineered have been engineered to undergo such transitions ultimately affording extracellular-like scaffolds for tissue regeneration. The above studies support the idea that the formation of hydrophobic interactions are important. MAX1-3 all contain valines and threonines at hydrogen bonded positions. At these positions, their side chains prefer to adopt a trans rotamer. As a result, hydrophobic residues that oppose each other across the hairpin point their side chains in opposite directions thus making the formation of intramolecular hydrophobic interactions across the strands difficult, FIG. 11A. However, these side chains are nicely positioned to interact laterally with the hydrophobic side chains of neighboring hairpins in the self-assembled state, FIG. 11B. Forming these lateral hydrophobic interactions should favor self-assembly. […] In MAX4, opposing valine side chains are expected to point towards each other, FIG. 11B. Thus, the valine side chains of MAX4 are less likely than those in MAX1 to form lateral intermolecular hydrophobic interactions. If the formation of lateral intermolecular hydrophobic interactions is of more importance for self-assembly than intramolecular hydrophobic contacts, then the rate of self-assembly should be faster for MAX1 than for MAX4. This difference in rate should be evident in the rate of storage moduli (rigidity) increase. […] (Tgel=20° C. for both peptides). […]

[3] = CD spectroscopy of peptide folding (random coil vs β-sheet); type: physicochemical; conditions: 150 μM solution, pH 9.0, 125 mM Borate, 10 mM NaCl
Method: Time-dependent circular dichroism (CD) studies support a hydrogelation mechanism consistent with intramolecular hairpin formation followed by self-assembly. […] At temperatures >25° C. the folding and self-assembly of MAX1 occurs on the order of seconds. […] This behavior is consistent across all spectro- and microscopic methods used to interrogate MAX1. For example, at micromolar concentrations used for the CD studies shown in FIGS. 4A and 4B, self-assembly takes hours at 20° C. At millimolar concentrations, such as those used in the rheological studies described below, self-assembly leading to hydrogel takes minutes at 20° C.
The reversibility of the folding and self-assembly process was investigated by measuring θ216 as a function of pH and time as shown in FIG. 4C. CD of a stirred solution of MAX1 at pH 5.5 indicates random coil conformation. Adjusting the pH to 9.0 by the addition of NaOH results in β-sheet formation as expected. However, subsequent adjustment of the pH to 6.0 results in complete loss of sheet signal and full recovery of random coil signal. […] Again, this reversible behavior is not observed in hydrogels formed from amyloid/prion-like fibrils.
In some embodiments of the invention, various functionalities (e.g., cell adhesion epitopes, receptor agonists, receptor antagonists, ligands, small molecules, etc) may be incorporated into the hairpin hydrogel scaffold. One way to accomplish this would be to functionalize one or more amino acid side chains of the peptide. […] In some embodiments, the moieties to be incorporated at a particular side chain may be much larger (e.g. RGD-based motifs) and may contain charged residues. MAX5 (VKVKVKVKV^DPPTKVKEKVKV-NH2) was prepared to investigate the possibility of incorporating a charged residue on the hydrophobic face of MAX1. The sequence contains a glutamic acid residue at position 16 which is negatively charged at basic pH where MAX1 normally folds and assembles. […] However, alterations to the hydrophilic face of MAX1 are well tolerated. Sequences in which one or two lysine residues are replaced with other residues such as cysteine, serine, and glutamic acid are capable of folding and self-assembly into rigid hydrogels (data not shown).
The peptides described above contain identical turn sequences, namely (-V^DPPT-). This sequence has a strong propensity to form a type II′ turn and therefore helps to drive intramolecular folding. Since intramolecular folding must occur prior to self-assembly, alterations to this turn sequence that inhibit turn structure formation can be used to modulate intramolecular folding and self-assembly leading to hydrogelation. MAX9 was prepared to probe the importance of the turn region (VKVKVKVKV^LPPTKVKVKVKV-NH2). […]

[4] = cited from earlier work

KVKVKVKV K^DPPS VKVKVKVK-NH2 (chain 1 KVKVKVKVK[dP]PS; not fully specified) [MAX4]
temperature at which folding and consequent self-assembly is triggered (Tgel) [1]: 20 °C

VKVKVKVK VPPT KVKVKVKV-NH2 (VKVKVKVKVPPTKVKVKVKV-NH2) [MAX9]
hydrogelation under folding conditions ([2]; 2 wt % solutions): failed to undergo hydrogelation
conformation by CD under folding conditions [3]: only random coil

-DRKADGYIDFEE-
Kd for Ca(II) ([4]; linear peptide): low mM

NC(=O)CN1CCN(CC(N)=O)CCN(CC(N)=O)CCN(CC(N)=O)CC1 [DOTAM]
Kd ([4]; read-out: Kd for calcium): 29 nM

VKVKVKVK V^DPPT KVKEKVKV-NH2 [MAX5]
conformation by CD under folding conditions [3]: random coil

VKVKVKVK V^DPPT KVKCKVKV-NH2 (not fully specified (C-terminus)) [MAX6]
ability to fold and self-assemble [2]: folds and self-assembles

VKVKVKTK V^DPPT KVKTKVKV-NH2 (not fully specified (C-terminus)) [MAX3]
reversibility of thermally induced hydrogelation [2]: thermally reversible
temperature at which folding and consequent self-assembly is triggered (Tgel) [1]: 60 °C

VKVKVKVK V^DPPT KVKTKVKV-NH2 (not fully specified (C-terminus)) [MAX2]
reversibility of thermally induced hydrogelation [2]: not reversible
temperature above which peptide folds/self-assembles ([1]; pH 9 (10 mM NaCl)): greater than 45 °C
temperature below which peptide is unfolded ([1]; pH 9 (10 mM NaCl)): below 40 °C
